Test results published in patent US20110104667.

Target: infectious prion protein PrPCWD (CWD prion, elk strain E2) (Cervus canadensis (elk)?) (UniProt P67986)
Assay: EMSA
Design: unit not given here

Sequence of infectious prion protein PrPCWD (CWD prion, elk strain E2) (Cervus canadensis (elk)?) (P67986 25-233): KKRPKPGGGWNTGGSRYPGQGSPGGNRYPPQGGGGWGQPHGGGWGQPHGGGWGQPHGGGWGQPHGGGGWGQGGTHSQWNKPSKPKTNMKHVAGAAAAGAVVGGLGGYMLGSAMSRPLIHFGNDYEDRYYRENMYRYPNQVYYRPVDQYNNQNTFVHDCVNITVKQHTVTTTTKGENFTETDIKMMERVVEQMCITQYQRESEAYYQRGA

Sequence: TACGACTCACTATAGGGATCCNNNNNNNNNNNNNNNNNNNNNNNNNNNNGAATTCCCTTTAGTGAGGGTT [70-mer DNA randomer library, PrPCWD-retained fraction]
- Kd: 6e-05
